Values quoted from earlier work as cited in PMC5040164.

Target: SAS1B (Mus musculus) (UniProt Q6HA09)
Chain of UniProt Q6HA09 (Q6HA09 24-435): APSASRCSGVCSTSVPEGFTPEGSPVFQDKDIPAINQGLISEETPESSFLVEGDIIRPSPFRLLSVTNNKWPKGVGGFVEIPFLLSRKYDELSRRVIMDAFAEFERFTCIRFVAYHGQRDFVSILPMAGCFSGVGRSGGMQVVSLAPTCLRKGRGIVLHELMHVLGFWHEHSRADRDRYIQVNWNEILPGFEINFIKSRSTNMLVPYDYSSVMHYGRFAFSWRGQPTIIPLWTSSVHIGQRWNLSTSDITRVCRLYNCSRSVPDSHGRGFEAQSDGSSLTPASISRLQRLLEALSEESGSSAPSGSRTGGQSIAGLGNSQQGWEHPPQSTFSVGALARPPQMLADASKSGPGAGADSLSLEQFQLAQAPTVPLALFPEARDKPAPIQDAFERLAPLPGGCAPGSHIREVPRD

## SLLP1 (from UniProt Q9D9X8)
  Kd: 0.32 nM
